{"source": "the nanobody polyreactivity screen of Harvey et al. (2022)", "data": [{"assay": "yeast display, Sf9 membrane polyspecificity reagent, FACS + sequencing; frameworks hold sequencing errors", "procedure,_shortened": "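Nanobodies from a synthetic yeast display library (Saccharomyces cerevisiae BJ5465), induced 36–48 hours with galactose, were stained 1 hour at 4 °C with 10% biotinylated, detergent-solubilized Sf9 membrane reagent, enriched on streptavidin microbeads, then FACS-sorted. Anti-HA (expression) and streptavidin (reagent binding) fluorescence set low and high (top ~1%) gates. Polyreactivity labels come from the gate of origin. Genes were colony-PCR amplified, MiSeq 2 × 250 sequenced and filtered by CDR length.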", "values": [{"sequence": "QVHLVESGGGLVQAGGSLRLSCAASGSTFYYNAMGWYRQAPGKERELDAAITFTGGSTYADSVKGRFTISRDNAKNTVYLQMNSLKPEDTAVYYCAAESLISWRYDYWGQGTQVTVSS", "polyreactivity (PSR sort gate)": "low polyreactivity"}, {"sequence": "QVHLVESGGGLVQAGGSLRLSCAASGSTILFYAMGWYRQAPGKERELVATISRGGSTYYADSVKGRFTISRDNAKNTVYLEMNSLKPEDTAVYYCAARATRVTIAPRYGYWGQGTQVTVSS", "polyreactivity (PSR sort gate)": "low polyreactivity"}, {"sequence": "QVHLVESGGGLVQAGGSLRLSCAASGSTIYYNAMGWYRQAPGKERELVAAISKSSSRTYYADSVKGRFTISRDNAKNTVYLQMNSLKTEDTAVYFCAADAVYFHFDYWGQGTQVTVSS", "polyreactivity (PSR sort gate)": "high polyreactivity"}, {"sequence": "QVHLVESGGGLVQAGGSLRLSCAASGSTLHYYTMGWYRQEPGKERELVAAITSGGSTHYADSVKGRFTISRDNAKNTVYLQMNSLKPEDTAVYYCAVKTGKWIPRDYWGQGTQVTVSS", "polyreactivity (PSR sort gate)": "low polyreactivity"}, {"sequence": "QVHLVESGGGLVQAGGSLRLSCAASGYIFGGYAMGWSRQAPGKEREFVAAISDISGSTYYADSVKGRFTISRDNAKNTVYLQMNSLKPEDTAVYYGGHTSTADEDYWGQGTQVTVSS", "polyreactivity (PSR sort gate)": "low polyreactivity"}, {"sequence": "QVHLVESGGGLVQAGGSLRLSCAASGYTFGHYAMGWYRQAPGKERELVAVITSGGSTNYADSVKGRFTISRDNAKNTVYLQMNSLKPEDTAVYYCAADLYFYYVWIRDYWGQGTQVTVSS", "polyreactivity (PSR sort gate)": "low polyreactivity"}, {"sequence": "QVHLVESGGGLVQAGGSLRLSCAASGYTFQWYDRGWYRQAPGKERELVASISWRGGSTYYADSVKGRFTISRDNAKNTVYLQMNSLKPEDTAVYYCAASLWPDYEYVYWGQGTQVTVSS", "polyreactivity (PSR sort gate)": "low polyreactivity"}, {"sequence": "QVHLVESGGGLVQAGGSLRLSCAASGYTRFYALGWYRQAPGKERELVAAISSSGGNTYYADSVKGSFTISRDNAKNTVYLQMNSLKPEDTAVYYCAKYVSYSRTLYDYWGQGTQVTVSS", "polyreactivity (PSR sort gate)": "high polyreactivity"}, {"sequence": "QVHLVESGGGLVQAGGSLRLSCAATGRTFRSYAMGWYRQAPGKEREFVAAISRSGASTRYPDSVKGRFTISRDIAKTTVYLQMNSLKPEVTAVYYCAAVWPDVRGYDYWGQGTEVTVSS", "polyreactivity (PSR sort gate)": "high polyreactivity"}, {"sequence": "QVHLVESGGGLVQAGGSLRLSCAATGSTFAHNDMGWYRQAPGKERELVAAITWGDSSTYYADSVKGRFTISRDNAKNTVYLQMNSLKPEDTAVYYCAKDYGFTGYGYWGQGTQVTVSS", "polyreactivity (PSR sort gate)": "low polyreactivity"}, {"sequence": "QVHLVESGGGLVQAGGSLRLSCAGSGRTFRYYAMGWYGQAPGKERELVAAISVRTGSTSDADSVKGRFTISRDNAKNTVYLQMNSLNPEDTAVYYCAATSRYFQPPGYGGGRIGYGYWGQGTQVTVSS", "polyreactivity (PSR sort gate)": "high polyreactivity"}, {"sequence": "QVHLVESGGGLVQAGGSLRLSCASSGSIFRYNTMGWYRQAPGKERELVAAIRGDGSTNYADSVKGRFTISRDNAKNTVYLQMNSLKPEDTAVYYCAVNLRGYRYAYDYWGQGTKVTVSS", "polyreactivity (PSR sort gate)": "low polyreactivity"}, {"sequence": "QVHLVESGGGLVQAGGSLRLSCASTGIIFLRNAMGWYRQAHGKERELVAAISYRGGSTYYADSVKGRFTISRDNANNTVYLQMNSLKPEDTAVYYCNDLYTSLYDYWGQGTQVTVSS", "polyreactivity (PSR sort gate)": "high polyreactivity"}, {"sequence": "QVHLVESGGGLVQAGGSLRLSCDASGLTLWTYAMGWSRQAAGKEMELVARIRSGGSTYYADSVKGRFTFSRDNAKNTVYLQMNSLKPEDTAVYSCNAKRYGRWAAAGRVGYDYWGQGTQVTVSS", "polyreactivity (PSR sort gate)": "high polyreactivity"}, {"sequence": "QVHLVESGGGLVQAGGSLRLSCDASGSIFASNTMGWYRQEPGQERELVAGITKIGSSTYYADSVKGRFTISRDHAKNTVYLKMNSLTPEDTAVYYCNAYGPNIYSSRYEYWGQGTQVTVSS", "polyreactivity (PSR sort gate)": "low polyreactivity"}, {"sequence": "QVHLVESGGGLVQAGGSLRLSCSASGSTFYIYTMGCYRQAPGKARELVAAISSSGGSTYYADSVKGRFTISRDNAKNTVYLQMNILKPEDTAVYYCAADPWVRLEYDYWGQGTQVTVSS", "polyreactivity (PSR sort gate)": "low polyreactivity"}, {"sequence": "QVHLVESGGGLVQAGGSLRLSCSASGSTFYRYAMGWYRQAPGKERELVAAINTGGSTNYADSVKGRFTISRDNAKNTVYLQMNSLKPEDTAVYYCAARFQYYRKYDYWGQGTQVTVSS", "polyreactivity (PSR sort gate)": "low polyreactivity"}, {"sequence": "QVHLVESGGGLVQAGGSLRLSCTASGRTFKYNSMGSSRQEPGKERELVAAISSRGGSTYYADSVKGRFTISRDNAKNTVYLQMNSLKPEDTAVYYCAAQFTTRYDWGQGTQVTVSS", "polyreactivity (PSR sort gate)": "high polyreactivity"}, {"sequence": "QVHLVESGGGLVQAGGSLRLSFAASGLIFSAYAMAWYRQAPGKERELVAAISSSGGRTYYADSVKGRFTISRDNAKNTVYLQMNSLKPEDTAVYYGNAASKNSGRYAYQNYDYWGQGTQVTVSS", "polyreactivity (PSR sort gate)": "high polyreactivity"}, {"sequence": "QVHLVESGGGLVQAGGSLRLSFAASGRIFWDNAMGWYRQAHGKERELVAAISDSVVITYYADSVKGRFTISRDNAKNTVYLQMNSLKPEDTAVYYCAADKRGTVYLSSFWMDYWGQGTQVTVSS", "polyreactivity (PSR sort gate)": "low polyreactivity"}, {"sequence": "QVHLVESGGGLVQAGGSLRLSFAASGRISRIYTMVWYRPAPGKERELVAAITSRGGSTYYADSLKGRFTISRDNAKNTVYFQMNSLNPEDTAVYYCAAGTFWWGYRSKGDEYDYWGQGTKVTVSS", "polyreactivity (PSR sort gate)": "high polyreactivity"}, {"sequence": "QVHLVESGGGLVQAGGSLRLSFDASGRIFYRNVMGWYRQAPGKERELVATITWGGSTYYADSVKGRFTISRYNEKNTVYLQMNSLKPEDTAVYYCATVRSRLFGQYYYWGQGTQVTVTS", "polyreactivity (PSR sort gate)": "high polyreactivity"}, {"sequence": "QVHLVESGGGLVQAGGSLRLSGAASGLTFSGNAMGWYRQAPGKERELVAAISWNGGRTYYADSVKGRFTISRDNAKNTVYLQMNSLKPEDTAVYYCAAEVRYSTYEDYDYWGQGTEVTVSS", "polyreactivity (PSR sort gate)": "low polyreactivity"}, {"sequence": "QVHLVESGGGLVQAGGSLRLSGAASGRIFFSNAMGWYRQAPGKEWELVAAISTSGGSTYYADSVKGRFTISRENAKNTVYLQMNSLKPEDTAVYYCNAVYYTSYSGYHFVYEYDYWGQGTQVTVSS", "polyreactivity (PSR sort gate)": "low polyreactivity"}, {"sequence": "QVHLVESGGGLVQAGGSLRLSLAASGSIFHPYAMGWYRQAPGKERELVAAISKSGGNTYYADSVKGRFTISRDNAKNNVYLQMNSLKPVDPEVYYCAALDYWGQGTKVTVSS", "polyreactivity (PSR sort gate)": "low polyreactivity"}, {"sequence": "QVHLVESGGGLVQAGGSLRLSSAASGITFWHNTMGWYRQAPGKERELVAAISWTGGRTYYADSVKGRFTISRDNAKNTVYLQMNSLKPEDTAVFSCAADFSWTPCGNYDSWGQGTQVTVSS", "polyreactivity (PSR sort gate)": "low polyreactivity"}, {"sequence": "QVHLVESGGGLVQAGGSLRLSSAASGSTFLYYGMGWYRQAPGTERELVATITWRGGRTYYADSVKGRFTISRDNAKNSVYLQMNSLNPEDTAVYYCAARVVGSYLKPYPYGLYYWGQGTQVTVSS", "polyreactivity (PSR sort gate)": "high polyreactivity"}, {"sequence": "QVHLVESGGGLVQAGGSLRLSSAAYGGIFDDNAMGWYRQAHGKERELVAAISSSGGSTYYADSVKGRFTISRDNAKYTVYLQMNSLKPEDTAVYYCNADRRRRFGYWGQGTQVNVSS", "polyreactivity (PSR sort gate)": "high polyreactivity"}, {"sequence": "QVHLVESGGGLVQAGGSLRLSSPASGRIFYRKALGWSRQETGKERELVAAISSSGGSTYYADSVKGRFTISRDNAKNTVYLQMNSLKPEDTEVYYCNKAVWGRSKYDFCGQGTQVTVSS", "polyreactivity (PSR sort gate)": "high polyreactivity"}, {"sequence": "QVHLVESGGGLVQAGGSLRLTCAASGRTFPGYDMGWYRQAPGKERELVAAISWSGTSTYYADSVKGRFTISRDNSKNTVYLQMNSLIPEDTAVYYCAARVKGQWNTYEYWGQGTQVTVSS", "polyreactivity (PSR sort gate)": "high polyreactivity"}, {"sequence": "QVHLVESGGGLVQAGGSLRLTCAASGSIFLYYAMGWYRQAPGKERELVAGIRRGGRTNYADSVKGRFTISRDNAKNTVYLQMNSLKPEDTAVYYCAKGGYWGQGTLVTVSS", "polyreactivity (PSR sort gate)": "high polyreactivity"}, {"sequence": "QVHLVESGGGLVQAGGSLRLTCAASGSTFDINAMRWYRQAPGKERELVASITFSGGSTYYADSVKGRFTISRDNAKNTVYLQMNSLKPEDTAVYYCAADSSGEYPGGYWGQGTQVTVSS", "polyreactivity (PSR sort gate)": "low polyreactivity"}, {"sequence": "QVHLVESGGGLVQAGGSLRVSCDASGILYTVYAMGWYRQAPGKQRELVAAITWSGGSTYYADSVKGRFTISRDNAKNTVYLQMNSLKPEDTEVYYCNTVGRVWDVETDGDYDYWGQGTQVTVSS", "polyreactivity (PSR sort gate)": "low polyreactivity"}, {"sequence": "QVHLVESGGGLVQAGGSLSLSCAASGSIFRYYAMGWYRQAPGKEREFVAAITRGGGRTYYADSVKGRFTISRDTAKHTVYLQLNSLKPEDTAVYSCAAGPPRTRYRNARFDYWGQGTQVTVSS", "polyreactivity (PSR sort gate)": "high polyreactivity"}, {"sequence": "QVHLVESGGGLVQAGGTLRLSCAASGFTFRIYAMGWYIQAPGKERELVATISWSGTSTYYADSVKGRFTISRDNAKNTVYLQMNSLKPEDTAVYYCAKDGVSVYWLNKYYYWGQGTQVTVSS", "polyreactivity (PSR sort gate)": "low polyreactivity"}, {"sequence": "QVHLVESGGGLVQAGGTLRLSCYASGRTIDTNAMGWYRQPPGKEREMVATINCSGGRTHYADSVKGRFTISRDNAKNTVYLQMNSLKPEDTAVFYCAKASSRRYWTIRDCDYWGQGTQVTVSS", "polyreactivity (PSR sort gate)": "low polyreactivity"}, {"sequence": "QVHLVESGGGLVQAGRSLRISCAASGRTFYGYAMGWYRQAPGKERELVAAITNGGRTYYADSVKGRFTISRDNAKNTVYLQMNSLKPEDTAVYYCAAGTGRGRSTLGSYYWGQCTQVTVSS", "polyreactivity (PSR sort gate)": "high polyreactivity"}, {"sequence": "QVHLVESGGGLVQAGVSLRLSCAASGRIFEENAMGWYRQAPGKERELVAAITYSGGSTYYADSVKGRFTISRDNAKNTVYLQMNSLKPEDTAVYYCAATVDLVYIDYDYWGQGTQVTVSS", "polyreactivity (PSR sort gate)": "low polyreactivity"}, {"sequence": "QVHLVESGGGLVQARGSLRLSCAASGSIFRNYAMGWYRQAPGKERELLATISGRGGRTYYADSVKGRFTISRDNAKNTVYLQMNSLKPEDTAVYYCAARGTLGKYSTATVYWGKGTQVTVSS", "polyreactivity (PSR sort gate)": "high polyreactivity"}, {"sequence": "QVHLVESGGGLVQEGGSLRISCAASGGTFHSNDMGWYRQAPGKESELVASINWSGGSTYYSDSVKGRFTISRDNAKNTVYLQMNRLKPEDNAVYYCAARESYPGYGYDHWGQGTQVTVSS", "polyreactivity (PSR sort gate)": "low polyreactivity"}, {"sequence": "QVHLVESGGGLVQEGGSLRLSCAASGSIFQYYAMGWYIQAPGKERELVAAISWRSGRTYYADSVKGRFTISRDNAKNTVYLQMNSLKPEDTAVYYCIRGYARDYDYWGQGTQVTVSS", "polyreactivity (PSR sort gate)": "high polyreactivity"}]}]}
